Target: aSyn-VC (alpha-synuclein fused in front of the C-terminal fragment of Venus) (UniProt P37840)

For “VN-Sph1 K527A (from UniProt Q9Y6H5 1-919) (natural protein)”, the cells with fewer VN-Sph1 + aSyn-VC inclusions than with WT Sph1 (HEK 293, counted by microscopy) was 40%.
